Patent US20100137155A1, “BIOSENSOR, METHOD FOR FABRICATING THE SAME, DETECTING METHOD UTILIZING THE SAME” (SHARP KABUCHIKI KAISHA, priority 2006, published 2010)

How the values were obtained:
Cry-J1 = molecular target: T1, Cry-J1 (Cryptomeria japonica, UniProt P18632); assay: ELISA detection efficiency for Cry-J1 of peptides bonded to PEG-DG linkers on aminated plate (Examples 2-5); type: binding, Japanese cedar (Cryptomeria japonica); details: for reactivity with respect to Cry-J1 (SH1 compared with AL1) / inclination of the 450 nm light absorbance versus antigen Cryj1 concentration: PEG-DG chain length 11.0 Å, n=2; for reactivity with respect to Cry-J1 (SH1 compared with AL1): FIG. 10; for inclination of the 450 nm light absorbance versus antigen Cryj1 concentration: antigen Cryj1 0 to 2.0 μg/mL
T1 sequence (P18632 22-374): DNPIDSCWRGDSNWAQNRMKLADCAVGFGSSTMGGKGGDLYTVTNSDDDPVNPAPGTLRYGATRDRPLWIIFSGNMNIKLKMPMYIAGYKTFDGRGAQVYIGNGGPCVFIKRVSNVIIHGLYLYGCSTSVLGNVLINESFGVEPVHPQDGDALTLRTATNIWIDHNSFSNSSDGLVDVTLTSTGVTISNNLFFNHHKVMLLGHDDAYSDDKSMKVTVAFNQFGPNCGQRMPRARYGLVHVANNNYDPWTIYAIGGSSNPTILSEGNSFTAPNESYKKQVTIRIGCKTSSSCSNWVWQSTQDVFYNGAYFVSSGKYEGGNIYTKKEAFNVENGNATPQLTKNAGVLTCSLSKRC
Description: In order to examine influences that the length of the linker has on the detection sensitivity of the biosensor, the following experiment was carried out. A 5 μg/mL aqueous solution of acetyl-NH-TEYTIHWWK-COOH(SH1) serving as an artificially synthesized CRY-J1 recognition peptide was mixed with a sodium hydrogen carbonate buffer solution (pH=9) containing 45 μM poly(or mono)ethylene glycol diglycidyl ether (PEG-DG) in order to cause a solid phase reaction.
As PEG-DG (poly(or mono)ethylene glycol diglycidyl ether) serving as a linker molecule, six kinds thereof with different chain lengths were selected. Specifically, sample 1: 8.3 Å chain length, degree of polymerization n=1; sample 2: 11.0 Å chain length, degree of polymerization n=2; sample 3: 16.6 Å chain length, degree of polymerization n=4; sample 4: […] chain length, degree of polymerization n=9; sample 5: 41.4 Å chain length, degree of polymerization n=13; and sample 6: 66.2 Å chain length, degree of polymerization n=22. The PEG-DG was selected from the Denacole EX series of Nagase ChemteX Corporation.
Using an aminated 96-hole ELISA method plate (Sumilon MS-3608F, available from SUMITOMO BAKELITE Co., Ltd.) as a solid phase, the solid phase reaction was completed in 24 hours at room temperature.
Blocking One, available from Nacalai Tesque, Inc., was used for the blocking, and the reaction was carried out at room temperature and completed in 24 hours.
To each of the linker molecules with different lengths, 50 μL of each of the acetyl-NH-TEYTIHWWK-COOH diluted solutions of 0 μg/mL, 0.2 μg/mL, 0.5 μg/mL, 1.0 μg/mL, 2.0 μg/mL, and 5.0 μg/mL was dropped to cause bonding between the linker and the peptide.
Anti-cedar pollen antigen Cry-J1-HRP (Horse Radish Peroxidase) (SEIKAGAKU CORPORATION) serving as a secondary antibody was prepared by diluting it 1000-fold with a phosphoric acid buffer solution containing 0.1% Tween 20, and 100 μL of this preparation solution was added to cause a reaction for one hour at room temperature. […]
The solid phase reaction was caused by mixing a 5 μg/mL aqueous solution of acetyl-NH-KTEYTIHWWK-COOH with a sodium hydrogen carbonate buffer solution (pH=9) containing 45 μM poly(or mono)ethylene glycol diglycidyl ether (PEG-DG).
The solid phase reaction was caused by mixing a 5 μg/mL aqueous solution of acetyl-NH-TEETIWWWK-COOH with a sodium hydrogen carbonate buffer solution (pH=9) containing 45 μM polyethylene glycol diglycidyl ether (PEG-DG).
As polyethylene glycol diglycidyl ether (PEG-DG), one such that the chain length was 11.0 Å and the degree of polymerization was n=2 was used.
The reaction of the artificially synthesized peptide AM was carried out in such a manner that 50 μL of each of the antigen Cryj1 diluted solutions of 0 μg/mL, 0.2 μg/mL, 0.5 μg/mL, 1.0 μg/mL, 2.0 μg/mL, and 5.0 μg/mL was dropped to cause bonding between the linker and the peptide.
For acetyl-NH-TEYTIHWWK-COOH(SH1) serving as the artificially synthesized Cry-J1 recognition peptide, a solid phase was carried out in accordance with example 2. The poly(or mono)ethylene glycol diglycidyl ether (PEG-DG) that was used was such that the chain length was 11.0 Å and the degree of polymerization was n=2.

[1] = molecular target: T2, pollen allergen protein (Cry-J1) (Cryptomeria japonica, UniProt P18632); assay: ELISA of Cry-J1 capture by peptide immobilized on amino group-bonded plate via polyethylene diglycidyl ether (Example 1); type: binding, Japanese cedar (Cryptomeria japonica); details: Cry-J1 0, 1, 5, 10 ng/mL; peptide immobilized through polyethylene diglycidyl ether; FIG. 5
T2 construct: purchased SEIKAGAKU CORPORATION
T2 sequence (P18632 22-374): T1 sequence (P18632 22-374)
Description: The reactivity between anti-Cry-J1 antibody H chain hypervariable area peptide (acetylated TEYTIHWWK) and pollen allergen protein (Cry-J1) was studied by the ELISA method. The experiment method can be summarized as follows.
To a well of an amino group-bonded plate (MS-3608F, available from SUMITOMO BAKELITE Co., Ltd.), a 200 μL solution of 0.0095 mg/mL acetylated TEYTIHWWK and 0.018 mg/mL polyethylene diglycidyl ether was added, and the resulting product was settled for a night at 4° C.
The peptide solution was taken out, followed by addition thereto 200 μL Blocking One (available from Nacalai Tesque, Inc.), and the resulting product was subjected to blocking processing.
After the blocking processing, the blocking solution was taken out and the well was washed with PBS containing 0.05% Tween 20. As the washing, the operation of adding and taking out 200 μL PBS containing 0.05% Tween 20 (20 mM of sodium phosphate, pH 7.4, 0.15 M of NaCl) to and of the well was carried out three times. […]
To the well, 100 μL color developing solution (available from Nacalai Tesque, Inc.) was added to cause a reaction for 10 minutes at room temperature. After the 10 minutes of reaction, 100 μL stop solution was added, and a 450 nm light absorbance was measured with a plate reader (available from Bio-Rad Laboratories, Inc.).

## acetyl-NH-TEETIWWWK-COOH (Ac-TEETIWWWK-OH) [peptide in which tyrosine was changed to glutamic acid and histidine to tryptophan]
Cry-J1
  reactivity with respect to Cry-J1 (SH1 compared with AL1): substantially the same reactivity
  inclination of the 450 nm light absorbance versus antigen Cryj1 concentration: linear

## acetyl-NH-KTEYTIHWW-COOH (Ac-KTEYTIHWW-OH) [anti-Cry-J1 antibody H chain hypervariable area peptide with N terminal lysine, α-amino group acetylated]
Cry-J1; linker bonded at N terminal lysine side chain, linker lengths of 20 to 60 Å (degree of polymerization n=4 to 9), FIG. 7
  detection efficiency with respect to Cry-J1 (inclination of 450 nm light absorbance): high

## acetyl-NH-TEYTIHWWK-COOH (Ac-TEYTIHWWK-OH) [artificially synthesized CRY-J1 recognition peptide; only α-amino group of N terminal T acetylated, lysine added to C terminal]
Cry-J1
  reactivity with respect to Cry-J1 (SH1 compared with AL1): substantially the same reactivity
  inclination of the 450 nm light absorbance versus antigen Cryj1 concentration: linear
Cry-J1; linker bonded at C terminal lysine, linker lengths of 15 Å or less (n=1 or 2) compared with 16.6 Å or more (n=4 or greater), FIG. 6
  detection efficiency with respect to Cry-J1 (inclination of 450 nm light absorbance): higher
[1]
  reactivity between peptide and pollen allergen protein (Cry-J1), 450 nm light absorbance: captured by the peptide depending on the concentration of the protein

## acetyl-NH-KTEYTIHWWK-COOH (Ac-KTEYTIHWWK-OH) [Cry-J1 recognition peptide with a lysine residue at both terminals, N terminal α-amino group acetylated]
Cry-J1; one linker at N terminal lysine and another at C terminal lysine, linker lengths 8.3 to 66.2 Å (n=1 to 22), FIG. 8
  detection efficiency with respect to Cry-J1 (inclination of 450 nm light absorbance): substantially the same irrespective of the linker length
